The record followed here is patent publication US20240218065A1 (SHENGHE CHINA BIOPHARMACEUTICAL, published 2024).

For orientation: EC50 (read off the curve) means the concentration giving half of the maximal effect. Read a low EC50 (read off the curve) as greater potency.

Test [1] addresses T1, Human-NKP30-His (Kactus, cat: NKP-HM430) (human, UniProt O14931 19-138, limits assumed).
T1 construct: also called NKP30 protein; NKP30-his protein; not shown: His tag
T1 sequence (looked up): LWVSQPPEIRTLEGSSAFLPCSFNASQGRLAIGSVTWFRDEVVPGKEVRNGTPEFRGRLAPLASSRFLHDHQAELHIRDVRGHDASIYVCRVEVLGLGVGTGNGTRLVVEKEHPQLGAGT
Briefly: ELISA: Human-NKP30-His coated, antibody titrated 3-fold from 10 µg/mL, HRP goat anti-human IgG-Fc, OD450-OD570. How it is done: (§1) Human-NKP30-His (Kactus, cat: NKP-HM430) was diluted to […] with PBS buffer at pH 7.4, added into the 96-well ELISA plate at 100 μL per well, coated overnight at 4° C., and blocked with 1% BSA blocking solution for 1 hour. The plate was washed 3 times with PBST, and the constructed antibodies were diluted to 10 μg/mL with 0.5% BSA sample diluent as the starting concentration, and then diluted by 3-fold gradient (11 gradients in total). A negative control (blank well and IgG1 isotype control) and a positive control were set, and the positive control was a NKP30 humanized antibody (sequence shown in SEQ ID No. 28), and incubated at 37° C. for 1 h at 100 μL per well. The plate was washed 3 times with PBST, and then HRP-labelled goat anti-human IgG-Fc was diluted with the sample diluent at 1:20000. 100 μL was added into each well, and incubated at room temperature for 1 hour. The plate was washed 4 times with PBST, and 100 μL of TMB substrate was added into each well, and incubated at room temperature without light for 10 minutes. 100 μL of 1 M HCl solution was added into each well to terminate the color development reaction. The absorbance value of each well in the 96-well plate was determined by selecting the wavelength of 450 nm and the reference wavelength of 570 nm on a multifunctional enzyme marker, and the absorbance value (OD)=OD₄₅₀ₙₘ−OD₅₇₀ₙₘ. The logarithm of the concentration of the constructed antibody was taken as the abscissa, and the measured absorbance value of each well was taken as the ordinate, and the Sigmoidaldose-response (Variable Slope) method (GraphPad Prism software, GraphPad Software, San Diego, California) was selected for nonlinear regression to obtain the binding curve of the target antibody to NKP30.
For orientation: An ELISA detects its analyte on a solid surface through an enzyme-linked reagent.

Test [2] addresses T1, Human-NKP30-His (Kactus, cat: NKP-HM430). Described as above. As for the experimental part: as §1, with “The plate was washed 3 times with PBST, and then HRP-labelled goat anti-human IgG-Fc was diluted with the sample diluent at 1:20000. 100 μL was added into each well, and incubated at room temperature for 1 hour. The plate was washed 4 times with PBST, and 100 μL of TMB substrate was added into each well, and incubated at room temperature without light for 10 minutes. 100 μL of 1 M HCl solution was added into each well to terminate the color development reaction.” left out
This is another data set of the same source.

The target is the same in test [3]. Described as above. As for the experimental part: as §1, with “The plate was washed 3 times with PBST, and then HRP-labelled goat anti-human IgG-Fc was diluted with the sample diluent at 1:20000. 100 μL was added into each well, and incubated at room temperature for 1 hour. The plate was washed 4 times with PBST, and 100 μL of TMB substrate was added into each well, and incubated at room temperature without light for 10 minutes. 100 μL of 1 M HCl solution was added into each well to terminate the color development reaction.” left out
The source holds these as a separate data set.

Test [4] has the same target. The description is as above. How it is done:
as §1
This is another data set of the same source.

Test [5] deals with T2, Human-GPC3-His (human, UniProt P51654 25-559, limits assumed).
T2 construct: Coated on the ELISA plate; also called GPC-3 protein; GPC3 protein; not shown: His tag
T2 sequence (P51654 25-559 limits assumed): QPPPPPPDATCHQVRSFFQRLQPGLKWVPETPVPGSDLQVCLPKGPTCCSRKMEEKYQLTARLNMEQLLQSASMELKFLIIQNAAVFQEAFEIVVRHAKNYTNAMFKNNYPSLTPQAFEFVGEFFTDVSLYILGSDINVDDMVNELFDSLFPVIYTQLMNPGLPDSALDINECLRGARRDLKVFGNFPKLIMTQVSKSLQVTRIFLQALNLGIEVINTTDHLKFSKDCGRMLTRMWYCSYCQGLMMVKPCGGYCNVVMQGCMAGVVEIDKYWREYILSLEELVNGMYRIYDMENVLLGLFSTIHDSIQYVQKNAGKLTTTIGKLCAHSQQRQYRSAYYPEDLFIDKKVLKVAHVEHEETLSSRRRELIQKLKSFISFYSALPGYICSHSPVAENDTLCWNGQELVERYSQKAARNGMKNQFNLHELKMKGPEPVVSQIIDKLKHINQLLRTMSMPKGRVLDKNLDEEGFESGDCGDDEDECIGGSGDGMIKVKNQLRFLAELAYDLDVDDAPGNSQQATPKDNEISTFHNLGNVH
Briefly: ELISA: Human-GPC3-His coated at 0.5 µg/mL, antibody titrated 3-fold from 10 µg/mL, HRP goat anti-human IgG-Fc, OD450-OD570. As for the experimental part:
Human-GPC3-His was diluted to 0.5 μg/mL with PBS buffer at pH 7.4, added into the 96-well ELISA plate at 100 μL per well, coated overnight at 4° C., and blocked with 1% BSA blocking solution for 1 hour. The plate was washed 3 times with PBST, and the constructed antibody was diluted to 10 μg/mL with 0.5% BSA sample diluent as the starting concentration, and then diluted by 3-fold gradient (11 gradients in total) and incubated at 37° C. for 1 h at 100 μL per well. The plate was washed 3 times with PBST, and then HRP-labelled goat anti-human IgG-Fc was diluted with the sample diluent at 1:20000. 100 μL was added into each well, and incubated at room temperature for 1 hour. A negative control (blank well and IgG1 isotype control) and a positive control were set, and the positive control was a GPC-3 and CD3 bispecial antibody from the literature Hs, A, et al. “Engineering a bispecific antibody with a common light chain: Identification and optimization of an anti-CD3 epsilon and anti-GPC3 bispecific antibody, ERY974.” Methods 154 (2019): 10-20. (The GPC-3 and CD3 bispecial antibody sequence consists of SEQ ID No. 22, SEQ ID No. 23, and SEQ ID No. 24). The plate was washed 4 times with PBST, and 100 μL of TMB substrate was added into each well, and incubated at room temperature without light for 10 minutes. 100 μL of 1 M HCl solution was added into each well to terminate the color development reaction. The absorbance value of each well in the 96-well plate was determined by selecting the wavelength of 450 nm and the reference wavelength of 570 nm on a multifunctional enzyme marker, and the absorbance value (OD)=OD₄₅₀ₙₘ−OD₅₇₀ₙₘ. The logarithm of the concentration of the constructed antibody was taken as the abscissa, and the measured absorbance value of each well was taken as the ordinate, and the Sigmoidaldose-response (Variable Slope) method (GraphPad Prism software, GraphPad Software, San Diego, California) was selected for nonlinear regression to obtain the binding curve of the target antibody to the GPC-3 protein.

Like-named read-outs stand apart in the source and are kept apart here.

B1: NKP30 humanized antibody (antibody, V domains shown)
VH: EVQLVESGGGLVQPGGSLRLSCAASGITFSRSVMGWFRQAPGKLRELVAGITSDDNTDYADSVKGRFTISRDNSKNTLYLQMNSLRAEDTAVYYCNILPDSRLGWGQGTLVTVSS
notes: detected with anti-human IgG-Fc
With B1, the “EC50 (read off the curve)” value in test [1], in test [2], in test [3] and in test [4] was roughly 0.03 µg/mL throughout.

B2: GN15-H (bispecific antibody, human IgG1, kappa)
light: DVVMTQSPLSLPVTPGEPASISCRSSQSLVHSNRNTYLHWYLQKPGQSPQLLIYKVSNRFSGVPDRFSGSGSGTDFTLKISRVEAEDVGVYYCSQNTHVPPTFGQGTKLEIKRTVAAPSVFIFPPSDEQLKSGTASVVCLLNNFYPREAKVQWKVDNALQSGNSQESVTEQDSKDSTYSLSSTLTLSKADYEKHKVYACEVTHQGLSSPVTKSFNRGEC
heavy 1: not shown
heavy 2: QVQLVQSGAEVKKPGASVKVSCKASGYTFTDYEMHWVRQAPGQGLEWMGALDPKTGDTAYSQKFKGRVTLTADKSTSTAYMELSSLTSEDTAVYYCTRFYSYTYWGQGTLVTVSSASTKGPSVFPLAPSSKSTSGGTAALGCLVKDYFPEPVTVSWNSGALTSGVHTFPAVLQSSGLYSLSSVVTVPSSSLGTQTYICNVNHKPSNTKVDKKVEPKSCDKTHTCPPCPGGGGSGGGGSPALLLLLLLRPPATRGITCPPPMSVEHADIWVKSYSLYSRERYICNSGFKRKAGTSSLTECVLNKATNVAHWTTPSLKCIRDPALVHQRPAPPSTVTTAGVTPQPESLSPSGKEGGGGSGGGGSAPELLGGPSVFLFPPKPKDTLMISRTPEVTCVVVDVSHEDPEVKFNWYVDGVEVHNAKTKPREEQYNSTYRVVSVLTVLHQDWLNGKEYKCKVSNKALPAPIEKTISKAKGQPREPQVYTLPPSRDELTKNQVSLTCLVKGFYPSDIAVEWESNGQPENNYKTTPPVLDSDGSFFLASKLTVDKSRWQQGNVFSCSVMHEALHNHYTQKSLSLSPGK
notes: Trifunctional antibody against GPC-3 and NKP30 with IL-15 and IL-15Rα sushi between CH1 and CH2; also called constructed antibody GN15-H; multifunctional antibody
As to B2, the “EC50 (read off the curve)” value in test [5] is roughly 0.01 µg/mL; in test [2] it was roughly 0.06 µg/mL.
